Measurements: publication PMC8686763, “Pre-Steady-State Kinetics of the SARS-CoV-2 Main Protease as a Powerful Tool for Antiviral Drug Discovery” (Frontiers in Pharmacology, 2021)

Target: FRET substrate Dabcyl-[…]-E(Edans)-NH2 (SARS-CoV-2)
Test: stopped-flow fluorescence kinetics (FRET signal of the Edans/Dabcyl peptide)

Substance: SARS-CoV-2 main protease, catalytically inactive mutant C145A (enzyme)
- Ka: 1.6e+06 M⁻¹
- Kd: 600 nM
- koff: 0.18 s⁻¹
- kon: 280000 M⁻¹ s⁻¹
